Results from the supplement of paper PMC10724198.
± gives the standard deviation of the averaged measurements.

Test system: Saccharomyces cerevisiae
Assay: protein stability index of tFT-peptide fusion (C-terminal peptide) (PSI (0-1 scale)); higher = more stable (slower turnover)
Conditions: temperature: 30 C
Description: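 MPS profiling in S. cerevisiae of the yeast C-terminome library: the last 12 aa of each annotated ORF are fused to the C-terminus of a sfGFP-mCherry timer, after a GGGS linker. Cells are FACS-sorted into 8 mCherry/sfGFP bins and deep-sequenced. PSI runs from 0 (unstable) to 1 (stable); wild type and das1Δ backgrounds, two technical replicates each.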

[1] = genetic background: das1 deletion

Sequence | protein stability index [1] | protein stability index (genetic background: wild type)
ALSKVGIYTIAN [PAU10 C-terminal 12 aa] | 0.702 ± 0.013 | 0.675 ± 0.042
ALWKEKKEKPRS [RPS23A C-terminal 12 aa] | 0.709 ± 0.01 | 0.687 ± 0.03
ANDWKTYENMKK [SIP18 C-terminal 12 aa] | 0.7042 ± 0.0029 | 0.706 ± 0.041
ANEMADELSRYL [IRC6 C-terminal 12 aa] | 0.724 ± 0.019 | 0.7344 ± 0.0047
ANFNDFYDAFYN [RSC30 C-terminal 12 aa] | 0.732 ± 0.019 | 0.707 ± 0.026
ANGRHPQPSITL [CDC33 C-terminal 12 aa] | 0.71 ± 0.016 | 0.709 ± 0.0097
APEFLDWLDEEN [HEM2 C-terminal 12 aa] | 0.738 ± 0.011 | 0.6793 ± 0.0033
APNSNSSSGSVS [YFL013W-A C-terminal 12 aa] | 0.673 ± 0.026 | 0.66 ± 0.034
AQGKLIMKVEGF [AST2 C-terminal 12 aa] | 0.698 ± 0.03 | 0.72 ± 0.024
AQLLLTLNEETS [CAF40 C-terminal 12 aa] | 0.6844 ± 0.0028 | 0.695 ± 0.032
AQPSQSEKEKTK [LNP1 C-terminal 12 aa] | 0.679 ± 0.015 | 0.678 ± 0.04
ARGCCEVTSKRF [YGL188C C-terminal 12 aa] | 0.683 ± 0.011 | 0.676 ± 0.0099
ARGRRRSKGFKV [RPL18A C-terminal 12 aa] | 0.722 ± 0.03 | 0.696 ± 0.016
ARLDKSLTFEDQ [RIM20 C-terminal 12 aa] | 0.6983 ± 0.0055 | 0.699 ± 0.038
ASDEPSRKKNRR [SSN3 C-terminal 12 aa] | 0.743 ± 0.044 | 0.704 ± 0.056
ASSIYIIFDYEN [BUB3 C-terminal 12 aa] | 0.6561 ± 0.0041 | 0.637 ± 0.025
ATFSHPELTNIH [SDH6 C-terminal 12 aa] | 0.716 ± 0.01 | 0.716 ± 0.024
ATMALRKLVSRE [MSA2 C-terminal 12 aa] | 0.693 ± 0.025 | 0.705 ± 0.061
ATRVSSRLRNKK [EAF7 C-terminal 12 aa] | 0.7311 ± 0.0026 | 0.701 ± 0.025
ATYLNKSDNQVQ [YLR446W C-terminal 12 aa] | 0.675 ± 0.052 | 0.656 ± 0.024
AVERLKLLKDYL [BNA3 C-terminal 12 aa] | 0.685 ± 0.013 | 0.73 ± 0.0074

Sequence | protein stability index [1] | protein stability index (genetic background: wild type)
AYFALREKKFLL [YIL012W C-terminal 12 aa] | 0.694 ± 0.019 | 0.641 ± 0.018
AYIDTSIPNLLL [REG2 C-terminal 12 aa] | 0.707 ± 0.022 | 0.7067 ± 0.0067
AYRTYDISLTEN [DRN1 C-terminal 12 aa] | 0.694 ± 0.035 | 0.656 ± 0.012
CDEVVEHVKASA [PCM1 C-terminal 12 aa] | 0.708 ± 0.0093 | 0.687 ± 0.017
CGGKRNLQRNNF [YLR149C-A C-terminal 12 aa] | 0.703 ± 0.017 | 0.6759 ± 0.0037
CLGDSIVNLLLI [YGR259C C-terminal 12 aa] | 0.677 ± 0.011 | 0.3352 ± 0.0027
CLREFMNGQRYI [DIA4 C-terminal 12 aa] | 0.7021 ± 0.0027 | 0.68 ± 0.034
CLSIIGFLKTKV [YOR015W C-terminal 12 aa] | 0.7002 ± 0.0043 | 0.622 ± 0.023
CMKAVILYSEQM [ATE1 C-terminal 12 aa] | 0.675 ± 0.012 | 0.6847 ± 0.0021
CNVCLFPDMYAR [CTF19 C-terminal 12 aa] | 0.71 ± 0.01 | 0.727 ± 0.039
CNYYYHPRITFA [RMT2 C-terminal 12 aa] | 0.6909 ± 0.0037 | 0.708 ± 0.039
CPHHNPDNQQFF [BIK1 C-terminal 12 aa] | 0.702 ± 0.025 | 0.702 ± 0.078
CTKHRFGYQNWI [ARP6 C-terminal 12 aa] | 0.692 ± 0.0049 | 0.692 ± 0.012
CVKVQQFSVIVL [YDR193W C-terminal 12 aa] | 0.544 ± 0.013 | 0.617 ± 0.011
DDFDMMEATQLS [MUD2 C-terminal 12 aa] | 0.70816 ± 0.00051 | 0.696 ± 0.0094
DDNEKALTWEEL [ATG19 C-terminal 12 aa] | 0.706 ± 0.013 | 0.6976 ± 0.0069
DEADSSMTEASV [SNF2 C-terminal 12 aa] | 0.704 ± 0.033 | 0.634 ± 0.015
DEDVDFLKVQVF [HAP4 C-terminal 12 aa] | 0.709 ± 0.041 | 0.747 ± 0.064
DEFQRLTNGIPY [STT4 C-terminal 12 aa] | 0.695 ± 0.024 | 0.6923 ± 0.0061
DEKLHSHNASPN [YNL198C C-terminal 12 aa] | 0.6788 ± 0.0032 | 0.697 ± 0.014
DFIRGVAVFMHI [YMR272W-A C-terminal 12 aa] | 0.691 ± 0.02 | 0.66587 ± 0.00052

Sequence | protein stability index [1] | protein stability index (genetic background: wild type)
DHIPLLTEFKIL [NGL1 C-terminal 12 aa] | 0.721 ± 0.036 | 0.188 ± 0.02
DIISFTSTLHGG [URM1 C-terminal 12 aa] | 0.727 ± 0.015 | 0.705 ± 0.059
DISDKIRRMQSR [MGP12 C-terminal 12 aa] | 0.692 ± 0.0073 | 0.777 ± 0.16
DKITAELILNKI [EMC2 C-terminal 12 aa] | 0.6872 ± 0.0017 | 0.6632 ± 0.0027
DKKKKKSKCVIL [RHO5 C-terminal 12 aa] | 0.753 ± 0.0091 | 0.74 ± 0.014
DKKLARAGNNAI [CUE3 C-terminal 12 aa] | 0.695 ± 0.0092 | 0.769 ± 0.0094
DKPLYKRMFSTK [HXT6 C-terminal 12 aa] | 0.694 ± 0.022 | 0.7134 ± 0.0047
DKYPFLLYEVVR [YHR022C-A C-terminal 12 aa] | 0.5289 ± 0.0027 | 0.544 ± 0.027
DLLNSVVVQRWA [SHP1 C-terminal 12 aa] | 0.697 ± 0.012 | 0.702 ± 0.034
DLMISCLMNQET [MTR3 C-terminal 12 aa] | 0.712 ± 0.028 | 0.6732 ± 0.0053
DLTKKPKKITFD [DBP3 C-terminal 12 aa] | 0.6923 ± 0.0048 | 0.638 ± 0.018
DNDIYNTISEVR [RAD9 C-terminal 12 aa] | 0.697 ± 0.022 | 0.727 ± 0.024
DPTTNGSIIKNE [IXR1 C-terminal 12 aa] | 0.6787 ± 0.0023 | 0.7014 ± 0.0049
DRLKRRNNDYGF [MSO1 C-terminal 12 aa] | 0.695 ± 0.014 | 0.738 ± 0.054
DSLENKIDSMTK [INH1 C-terminal 12 aa] | 0.715 ± 0.018 | 0.714 ± 0.055
DSTMKIWSPGYQ [STE4 C-terminal 12 aa] | 0.7158 ± 0.00073 | 0.728 ± 0.011
DSYKLMHSHIHP [IZH1 C-terminal 12 aa] | 0.691 ± 0.01 | 0.6721 ± 0.0056
DTSSTVEKKQKT [CCL1 C-terminal 12 aa] | 0.686 ± 0.032 | 0.692 ± 0.038
DTVVRLIDNIVI [PAN6 C-terminal 12 aa] | 0.6896 ± 0.0041 | 0.702 ± 0.07
DVERVIRNAGRS [HSL1 C-terminal 12 aa] | 0.693 ± 0.0082 | 0.674 ± 0.0079
EALGKGGRGKRY [LSO1 C-terminal 12 aa] | 0.671 ± 0.013 | 0.678 ± 0.019

Sequence | protein stability index [1] | protein stability index (genetic background: wild type)
EALTKASNVNKL [CIT3 C-terminal 12 aa] | 0.6972 ± 0.0031 | 0.65 ± 0.041
EAQSARNEKPLK [COS8 C-terminal 12 aa] | 0.685 ± 0.021 | 0.691 ± 0.029
EDRQAFFDSLKE [YGK1 C-terminal 12 aa] | 0.724 ± 0.036 | 0.651 ± 0.025
EDSKEYFEAANK [TSA1 C-terminal 12 aa] | 0.71 ± 0.021 | 0.704 ± 0.0061
EDTVNDKANFEG [STL1 C-terminal 12 aa] | 0.673 ± 0.015 | 0.655 ± 0.015
EEFLTLLGRRSI [FOL2 C-terminal 12 aa] | 0.708 ± 0.01 | 0.723 ± 0.012
EEWYTSNHDSLA [PRP18 C-terminal 12 aa] | 0.723 ± 0.013 | 0.698 ± 0.014
EFEKAQEINKKA [YRB1 C-terminal 12 aa] | 0.712 ± 0.017 | 0.694 ± 0.02
EGDIEPLKRILK [UBP2 C-terminal 12 aa] | 0.706 ± 0.012 | 0.675 ± 0.088
EGRKVKKVSFAQ [LOC1 C-terminal 12 aa] | 0.7297 ± 0.0035 | 0.7111 ± 0.0032
EHYSDGDVCIII [DAL3 C-terminal 12 aa] | 0.68 ± 0.032 | 0.68 ± 0.016
EIASCSSSIYSE [DSE3 C-terminal 12 aa] | 0.696 ± 0.022 | 0.711 ± 0.035
EIIRVGPQESII [MRP49 C-terminal 12 aa] | 0.723 ± 0.019 | 0.749 ± 0.034
EIRKIMMEEQPR [CHM7 C-terminal 12 aa] | 0.6863 ± 0.0051 | 0.66 ± 0.0089
EKLPSKFTFKRE [ARN1 C-terminal 12 aa] | 0.696 ± 0.012 | 0.6817 ± 0.0011
ELERDITISREY [MIP1 C-terminal 12 aa] | 0.701 ± 0.028 | 0.698 ± 0.068
ELIEDPRKMLLW [KGD2 C-terminal 12 aa] | 0.694 ± 0.014 | 0.69 ± 0.033
ELLRLHNCHLPV [RMA1 C-terminal 12 aa] | 0.713 ± 0.018 | 0.7 ± 0.0081
ELPGVAFLSEKK [PGK1 C-terminal 12 aa] | 0.728 ± 0.016 | 0.67 ± 0.0094
ELTKALDLLNSI [VTA1 C-terminal 12 aa] | 0.691 ± 0.015 | 0.694 ± 0.047
